Key:
Type in all cases: cell-based, human
Ret = Ret expression after siRNA transfection (Western blot and PCR) in MCF7 cells; conditions: 20 nM siRNA
Experimental: MCF7 cells are seeded at a density of 10^5 cells/well in 6 well plates. 24 hours after seeding, cells are transfected with control lacZ siRNA or Ret siRNA (Qiagen, 96165/96166) at a final siRNA concentration of 20 nM using HiPerFect transfection reagent (Qiagen, 301705). siRNA targeting sequences are as following:
Ret9 and Ret51 protein expression is analyzed 72 hours post siRNA transfection using polyclonal antibodies from Santa Cruz (C-19 against Ret9: sc-167; C-20 against Ret51: sc-1290) and direct Western Blot analysis with 50 μg of total protein extract (FIG. 2 Panel A). […] As a control, total RNA is extracted in a parallel experiment (RNeasy, 74104, Qiagen). First-strand cDNA is synthesized using SuperScript III First-Strand Synthesis System for RT-PCR (Invitrogen, 18080-051), using random hexamer primers.

MCF7 cells [1] = assay: GDNF-induced Erk (MAPK) activation after siRNA transfection, immunoblot; conditions: 72 hrs after siRNA transfection, 10 ng/ml GDNF for 10 min
Experimental: (§1) MCF7 and T47D cells are seeded at 5×10^5/4 ml in 6 cm plates for 24 hrs. Cells are transfected with siRNAs targeting Ret (siRet1: […] siRet2: […]; Qiagen) or a control siRNA targeting LacZ ([…]) using Oligofectamine (12252-011, Invitrogen) and HiPerFect, respectively. After 72 hrs, cells are stimulated with 10 ng/ml GDNF alone (for 10 min in MCF7) or together with 100 ng/ml GFRα1 (for 30 min in T47D; rhGFRα1/Fc chimera 714-GR, R&D Systems), extracted and resolved by 12.5% SDS-PAGE electrophoresis and immunoblot analysis is performed using rabbit polyclonal antibodies against Erk (MAPK) and phospho-Erk (p-MAPK: see FIG. 7).

T47D cells [2] = assay: as above; conditions: 72 hrs after siRNA transfection, 10 ng/ml GDNF with 100 ng/ml GFRα1 for 30 min
Experimental: as §1

MCF7 cells [3] = assay: Anchorage-independent cell proliferation (polyheme assay); conditions: 10 ng/ml GDNF alone for 4 days, polyheme-coated plates
Experimental: (§2) MCF7 and T47D cells are seeded at 5×10^5/4 ml in 6 cm plates coated with polyheme (P3932, Sigma) to prevent adhesion of the cells to the substratum. Cells are treated with 10 ng/ml GDNF alone (MCF7) or together with 100 ng/ml GFRα1 (T47D) for 4 days. Cells were collected, trypsinized and counted (Vi-cell XR, Beckman Coulter).
(§3) MCF7 and T47D cells are seeded at 10^6/4 ml in 6 cm plates coated with polyheme. Cells are pretreated with 100 nM of a Ret inhibitor [repeat name of compound from earlier] or the vehicle DMSO for 1 hr, and then treated with 10 ng/ml GDNF alone (MCF7) or together with 100 ng/ml GFRα1 (T47D) for 4 days. Cells are collected, trypsinized and counted (Vi-cell XR, Beckman Coulter).

T47D cells [4] = assay: as above; conditions: 10 ng/ml GDNF with 100 ng/ml GFRα1 for 4 days, polyheme-coated plates
Experimental: as §2, §3

MCF7 cells [5] = assay: GDNF stimulation of Erk and JNK/SAPK phosphorylation, immunoblot; conditions: 100 ng/ml GDNF, 5 min to 8 hrs
Experimental: (§4) MCF7 and T47D cells are seeded at 3×10^6/15 ml and 3×10^6/10 ml in 15 and 10 cm plates for 2 days respectively. Cells are serum deprived (0.1% FCS) for 16 to 24 hrs or refed with normal medium. Cells are stimulated with 100 ng/ml GDNF (450-10, PeProTech) for 5, 10, 20, or 30 min 1, 4 or 8 hrs. Cell extracts are resolved by 10 or 12.5% SDS-PAGE electrophoresis and immunoblot analysis is performed using rabbit polyclonal antibodies raised against Erk (MAPK: 9102, Cell Signaling Technology) phospho-Erk (P-MAPK: […]; 9101) JNK/SAPK (9251) and phospho-JNK/phospho-SAP (Thr183/Tyr185; 9252) (see FIG. 6).

T47D cells [6] = assay: as above; conditions: 100 ng/ml GDNF, 5 min to 8 hrs
Experimental: as §4

MCF7 cells [7] = assay: Soft agar colony assay (anchorage-independent proliferation); conditions: 10 or 100 ng/ml GDNF alone, every week for 4 weeks
Experimental: (§5) MCF7 and T47D cells are treated with 10 or 100 ng/ml GDNF alone (MCF7) or together with 100 ng/ml GFRα1 (T47D) for 10 to 20 min in suspension and subsequently seeded at 10^5/2 ml in 6-well plates in a soft agar layer. Cells are treated again with GDNF alone or together with GFRα1 every week for 4 weeks in fresh medium. Colonies are stained with nitrotetrazolium blue and counted (Artek counter 880, Dynatech Laboratories).

T47D cells [8] = assay: as above; conditions: 10 or 100 ng/ml GDNF with 100 ng/ml GFRα1, every week for 4 weeks
Experimental: as §5

siRet1: siRNA targeting Ret, targeting sequence CCGCTGGTGGACTGTAATAAT (Qiagen) (target sequence only, siRNA duplex strands not listed, further chemistry not given here)
Ret9 protein expression (Western blot signal) (Ret; 72 hours post transfection, antibody C-19): reduction in signal | Ret51 protein expression (Western blot signal) (Ret; 72 hours post transfection, antibody C-20): reduction in signal | Ret mRNA expression (PCR) (Ret; parallel experiment): reduction in Ret mRNA | GDNF-induced activation of Erk (MAPK) (MCF7 cells [1]): prevents | GDNF-induced activation of Erk (MAPK) (T47D cells [2]): prevents

siRet2: siRNA targeting Ret, TAGGCTGGTTCTCAACCGGAA (Qiagen) (target sequence only, siRNA duplex strands not listed, further chemistry not given here)
GDNF-induced activation of Erk (MAPK) (MCF7 cells [1]): prevents | GDNF-induced activation of Erk (MAPK) (T47D cells [2]): prevents

B1: GDNF: glial-derived neurotrophic factor, specific ligand of Ret (450-10, PeProTech) (protein, UniProt P39905 78-211, looked up)
Glial cell line-derived …: SPDKQMAVLPRRERNRQAAAANPENSRGKGRRGQRGKNRGCVLTAIHLNVTDLGLGYETKEELIFRYCSGSCDAAETTYDKILKNLSRNRRLVSDKVGQACCRPIAFDDDLSFLDDNLVYHILRKHSAKRCGCI
modifications: recombinant, PeProTech
anchorage-independent cell proliferation (cell count) (MCF7 cells [3]): significantly enhances | anchorage-independent cell proliferation (cell count) (T47D cells [4]): significantly enhances | phosphorylation of Erk (MCF7 cells [5]): increased phosphorylation | phosphorylation of JNK/SAPK (MCF7 cells [5]): increased phosphorylation | phosphorylation of Erk (T47D cells [6]): increased phosphorylation | phosphorylation of JNK/SAPK (T47D cells [6]): increased phosphorylation | number of colonies in soft agar (MCF7 cells [7]): significantly increased the number of colonies in a concentration-dependent manner | number of colonies in soft agar (T47D cells [8]): significantly increased the number of colonies in a concentration-dependent manner
